The target in assay [1] is T1, biotin-OSR (uncleaved human OSR1 CCT domain, residues 423-527, biotinylated on the AviTag) (human, biotin on the lysine of the AviTag (…)). The assay can be described thus: waveRAPID.
For assay [2], the target named is T2, biotin-SPAK (uncleaved human SPAK CCT domain, residues 441-545, biotinylated on the AviTag) (human, biotin on the lysine of the AviTag (…)). As to the kind of experiment: waveRAPID.
Assay [3] deals with T1, biotin-OSR (uncleaved human OSR1 CCT …). As to the kind of experiment: multicycle kinetics.
Assay [4] concerns the target T2, biotin-SPAK (uncleaved human SPAK CCT …). The assay can be described thus: multicycle kinetics.
Assay [5] addresses T3, cleaved SPAK (human SPAK CCT domain, residues 441-545, tags removed with TEV protease) (human). As to the kind of experiment: waveRAPID, heterogeneous ligand model, second site.
Assay [6] concerns the target T4, cleaved OSR1 (human OSR1 CCT domain, residues 423-527, tags removed with TEV protease) (human). As to the kind of experiment: waveRAPID, 1:1 model.
Assay [7] concerns the target T3, cleaved SPAK (human SPAK CCT domain, …). As to the kind of experiment: waveRAPID, heterogeneous ligand model, site 1.
For assay [8] the target is unchanged. As to the kind of experiment: waveRAPID, heterogeneous ligand model, second site. This is another data set of the same source.
In assay [9] the target is T4, cleaved OSR1 (human OSR1 CCT domain, …). The assay can be described thus: multicycle kinetics, 1:1 model.

Where no end group is shown, it is not given here. The star is where a group is joined. Biotin = O=C1N[C@H]2[C@H](CS[C@H]2CCCCC(=O)*)N1

Usually koff stands for the rate constant with which the complex falls apart. As a reminder, the Kd is a measure of binding affinity in units of concentration. Higher therefore signals weaker binding.

T4 sequence (chain, as listed by the source): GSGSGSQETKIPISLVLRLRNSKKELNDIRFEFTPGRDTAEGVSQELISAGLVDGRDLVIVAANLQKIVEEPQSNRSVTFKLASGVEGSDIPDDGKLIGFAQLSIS
T1 sequence (chain, as listed by the source): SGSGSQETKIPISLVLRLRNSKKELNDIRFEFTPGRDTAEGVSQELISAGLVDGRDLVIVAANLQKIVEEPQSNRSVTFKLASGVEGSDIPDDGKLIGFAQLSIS

Turning to SEEGKPQLVGRFQVTSSK [18-mer RFQV peptide derived from WNK4 (SEEGKPQLVGRFQVTSSK), unbiotinylated], the koff in assay [1] was found to be 0.56 s⁻¹; in assay [2], 0.614 s⁻¹; in assay [3], 0.68 s⁻¹; in assay [4], 0.327 s⁻¹.

In the case of {Biotin-C6}-SEEGKPQLVGRFQVTSSK [Biotin-C6-SEEGKPQLVGRFQVTSSK (N-terminally biotinylated 18-mer RFQV peptide derived from WNK4)], in assay [5], the affinity, expressed as Kd, was 4.25 nM. Also, the off-rate (koff) in [6] is 0.662 s⁻¹; in assay [7] it was 0.584 s⁻¹; in assay [8] it was 6.98e-05 s⁻¹; in [9], 1.13 s⁻¹.

For the origin of these results see publication doi:10.1101/2021.08.19.456998 (2021).
